T1: recombinant extracellular domain of human TROP2 (human, UniProt P09758 27-274)
T1 construct: extracellular domain; Commercial protein (Acrobiosystem), used as the analyte in SPR; also called Trophoblast antigen 2; GA733-1
T1 sequence (looked up): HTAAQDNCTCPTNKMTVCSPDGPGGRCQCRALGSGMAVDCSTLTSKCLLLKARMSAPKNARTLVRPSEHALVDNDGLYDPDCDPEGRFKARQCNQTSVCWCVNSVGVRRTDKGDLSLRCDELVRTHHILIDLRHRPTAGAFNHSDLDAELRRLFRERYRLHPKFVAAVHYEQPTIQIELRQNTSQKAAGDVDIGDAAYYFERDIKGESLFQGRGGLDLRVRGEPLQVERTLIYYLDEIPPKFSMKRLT


Target: T1, recombinant extracellular domain of …
Test: SPR, Biacore 8K, antibody captured on Protein A chip, TROP2 ECD as analyte, 25 C, 1:1 model
Protocol: Binding kinetics and affinity analysis are performed. Surface Plasmon Resonance (SPR) analysis is performed on a Biacore 8K (GE healthcare) with a Sensor Chip Protein A (GE healthcare) following manufacturer's instructions. All measurements are performed at 25° C. in the HBS-EP+ buffer (10 mM HEPES, pH 7.4, 150 mM NaCl, 3 mM EDTA, and 0.05% surfactant P20). About 110-140 RU (Resonance unit) of each of the purified antibodies is captured on flow cells 2, 4, 6, 8, 10, 12, 14, 16 (i.e., the reaction surface) of the sensor chip, respectively. Flow cells 1, 3, 5, 7, 9, 11, 13 and 15 are treated with the HBS-EP+ buffer to serve as reference surfaces.
Serial dilutions of the recombinant extracellular domain of human TROP2 (i.e., the analyte) (Acrobiosystem) (243, 81, 27, 9, 3, 1, 0.333, and 0.111 nM, respectively) are prepared in HBS-EP+ buffer. Capturing of the antibodies is followed by a three-minute injection (association phase) of serial dilutions of TROP2 at a flow rate of 30 μL/min and ten minutes of buffer flow (dissociation phase). The chip surface is regenerated by two pulses of 30-second injection of 10 mM Glycine-HCl pH 1.5 at a flow rate of 50 μL/min. The collected data are processed on a Biacore 8K Evaluation software using methods known in the art, comprising the following steps: (1) setting the response on the y-axis and the start of the injection on the x-axis to zero, (2) performing double referencing by firstly subtracting the reference surface data from the reaction surface data to get the analyte injection curves, and then subtracting the buffer injection curves from the analyte injection curves, and (3) performing the kinetic analysis using the 1:1 binding model with a global fit. The result for each antibody is presented as Ka (on-rate), Kd (off-rate) and KD (affinity constant) (Table 3).

Row | Binder | Kd [nM] | koff [s⁻¹] | kon [M⁻¹ s⁻¹]
1 | Ab0054 (antibody, human IgG1, kappa, V domains shown, Humanized IgG; also called Ab0001-huV5-VL / Ab0001-huV4-VH) VH: QVQLVQSGAEVKKPGSSVKVSCKASGYRFTDYVINWVRQAPGQGLEWMGQIYPGSDSFHYNQKFQGRATLTADKSTNTAYMELSSLRSEDTAVYYCARFFEGLAYWGQGTLVTVSS VL: DIQMTQSPSSLSASVGDRVTITCKASQGINNYLSWYQQKPGKAPKSLIYRANRLVDGVPSRFSGSGSGTDFTLTISSLQPEDFATYYCLQYDEFPLTFGGGTKVEIKR | 0.43 | 0.000416 | 975000
2 | Ab0063 (antibody, human IgG1, kappa, V domains shown, Humanized IgG; also called Ab0001-huV8-VL / Ab0001-huV4-VH) VH: QVQLVQSGAEVKKPGSSVKVSCKASGYRFTDYVINWVRQAPGQGLEWMGQIYPGSDSFHYNQKFQGRATLTADKSTNTAYMELSSLRSEDTAVYYCARFFEGLAYWGQGTLVTVSS VL: DIQMTQSPSSLSASVGDRVTITCKASQGINNYLSWYQQKPGKAPKSLIYRANRLVSGVPSRFSGSGSGTDFTLTISSLQPEDFATYYCLQYDEFPLTFGGGTKVEIKR | 0.46 | 0.000394 | 862000
3 | Ab0053 (antibody, human IgG1, kappa, V domains shown, Humanized IgG; also called Ab0001-huV4-VL / Ab0001-huV4-VH) VH: QVQLVQSGAEVKKPGSSVKVSCKASGYRFTDYVINWVRQAPGQGLEWMGQIYPGSDSFHYNQKFQGRATLTADKSTNTAYMELSSLRSEDTAVYYCARFFEGLAYWGQGTLVTVSS VL: DIQMTQSPSSLSASVGDRVTITCKASQGINNYLSWYQQKPGKAPKSLIYRANRLVDGVPSRFSGSGSGTDYTLTISSLQPEDFATYYCLQYDEFPLTFGGGTKVEIKR | 0.32 | 0.000326 | 1.01e+06
4 | Ab0062 (antibody, human IgG1, kappa, V domains shown, Humanized IgG; also called Ab062; Ab0001-huV5-VL / Ab0001-huV6-VH) VH: QVQLVQSGAEVKKPGSSVKVSCKASGYRFTDYVINWVRQAPGQGLEWMGQIYPGSDAFHYNQKFQGRATLTADKSTNTAYMELSSLRSEDTAVYYCARFFEGLAYWGQGTLVTVSS VL: DIQMTQSPSSLSASVGDRVTITCKASQGINNYLSWYQQKPGKAPKSLIYRANRLVDGVPSRFSGSGSGTDFTLTISSLQPEDFATYYCLQYDEFPLTFGGGTKVEIKR | 0.81 | 0.000719 | 889000
5 | Ab0064 (antibody, human IgG1, kappa, V domains shown, Humanized IgG; also called Ab0001-huV8-VL / Ab0001-huV5-VH) VH: QVQLVQSGAEVKKPGSSVKVSCKASGYRFTDYVINWVRQAPGQGLEWMGQIYPGSDTFHYNQKFQGRATLTADKSTNTAYMELSSLRSEDTAVYYCARFFEGLAYWGQGTLVTVSS VL: DIQMTQSPSSLSASVGDRVTITCKASQGINNYLSWYQQKPGKAPKSLIYRANRLVSGVPSRFSGSGSGTDFTLTISSLQPEDFATYYCLQYDEFPLTFGGGTKVEIKR | 0.76 | 0.000547 | 722000
6 | Ab0052 (antibody, human IgG1, kappa, V domains shown, Humanized IgG; also called Ab0001-huV3-VL / Ab0001-huV4-VH) VH: QVQLVQSGAEVKKPGSSVKVSCKASGYRFTDYVINWVRQAPGQGLEWMGQIYPGSDSFHYNQKFQGRATLTADKSTNTAYMELSSLRSEDTAVYYCARFFEGLAYWGQGTLVTVSS VL: DIQMTQSPSSLSASVGDRVTITCKASQGINNYLSWYQQKPGKAPKSLIYRANRLVDGVPSRFSGSGSGQDYTLTISSLQPEDFATYYCLQYDEFPLTFGGGTKVEIKR | 0.31 | 0.000321 | 1.03e+06
7 | Ab0061 (antibody, human IgG1, kappa, V domains shown, Humanized IgG; also called Ab0001-huV5-VL / Ab0001-huV5-VH) VH: QVQLVQSGAEVKKPGSSVKVSCKASGYRFTDYVINWVRQAPGQGLEWMGQIYPGSDTFHYNQKFQGRATLTADKSTNTAYMELSSLRSEDTAVYYCARFFEGLAYWGQGTLVTVSS VL: DIQMTQSPSSLSASVGDRVTITCKASQGINNYLSWYQQKPGKAPKSLIYRANRLVDGVPSRFSGSGSGTDFTLTISSLQPEDFATYYCLQYDEFPLTFGGGTKVEIKR | 0.62 | 0.000545 | 874000
